Reference: patent publication US20090004190A1, “Rage Fusion Proteins And Methods Of Use” (priority 2006, published 2009)
“And” between values parts separate entries of the source, which are not always exact repeats. Equal values may be shown once.

Key:
[1] = system: recurrent diabetes in NOD/LtJ mice with syngeneic islet transplants; test: Syngeneic islet transplantation in diabetic NOD mice; assay type: in vivo, mouse; details: 300 ug LD + 100 ug qod ip
Description: Spontaneous autoimmune non-obese diabetic mice (NOD/LtJ) (12-25 weeks old) served as recipients for islet cells, while young pre-diabetic NOD/LtJ mice (6-7 weeks old) served as donors in syngeneic islet transplantation. Islets for transplantation were isolated as described above in Section A (Allogeneic Islet Transplantation).
Diabetic NOD/LtJ mice received islet grafts within 2 days of the diagnosis of diabetes. 500-600 freshly isolated islets (approximately 550 islet equivalents) from donor mice were picked up with an infusion set and transplanted into the subcapular space of the right kidney.
Test compounds were administered as soon as the islets were transplanted and continued for approximately 8 weeks.
Islet graft function was monitored by serial blood glucose measurements daily for the first 2 weeks after islet transplantation, followed by every other day thereafter. Reversal of diabetes was defined as blood glucose less than 200 mg/dl on two consecutive measurements. Percentage graft loss was determined when blood glucose exceeded 250 mg/dl on two consecutive measurements.

[2] = system: S100b/RAGE-induced production of TNF-α in THP-1 cells; test: Inhibition of S100b/RAGE-induced production of TNF-α in THP-1 cells; assay type: cell-based; details: 10 μg protein, FIG. 10
Description: Use of the RAGE fusion proteins of the present invention to modulate expression of the cellular effector TNF-α is shown in FIG. 10. THP-1 myeloid cells may be cultured in RPMI-1640 media supplemented with 10% FBS and induced to secrete TNF-α via stimulation of RAGE with S100b. When such stimulation occurs in the presence of a RAGE fusion protein, induction of TNF-α by S100b binding to RAGE may be inhibited.
Previous work has shown that the myeloid THP-1 cells may secrete TNF-α in response to RAGE ligands. In this assay, THP-1 cells were cultured in RPMI-1640 media supplemented with 10% FBS using a protocol provided by ATCC. […] The amount of TNF-α secreted by the THP-1 cells was measured 24 hours after the addition of the proteins to the cell culture using a commercially available ELISA kit for TNF-α (R&D Systems, Minneapolis, Minn.).

[3] = system: transgenic mice expressing human Swedish mutant APP; test: Mouse model of AD (APP transgenic mice): amyloid deposition and Morris water maze; assay type: in vivo
Experimental: Experiments were performed to evaluate whether TTP-4000 could affect amyloid formation and cognitive dysfunction in a mouse model of AD. The experiments utilized transgenic mice expressing the human Swedish mutant amyloid precursor protein (APP) under the control of the PDGF-B chain promoter. Over time, these mice generate high levels of the RAGE ligand, amyloid beta (Aβ).
The APP mice (male) used in this experiment were designed by microinjection of the human APP gene (with the Swedish and London mutations) into mouse eggs under the control of the platelet-derived growth factor B (PDGF-B) chain gene promoter. The mice were generated on a C57BL/6 background and were developed by Molecular Therapeutics Inc. Animals were fed ad libitum and maintained by brother sister mating. The mice generated from this construct develop amyloid deposits starting at 6 months of age. Animals were aged for 6 months and then maintained for 90 days and sacrificed for amyloid quantification.
APP transgenic mice were administered vehicle or TTP4000 every other day [qod (i.p.)] for 90 days starting at 6 months of age. At the end of the experiment, animals were sacrificed and examined for Aβ plaque burden in the brain (i.e., plaque number). A 6-month control APP group was used to determine the baseline of amyloid deposits. In addition, at the end of the study, the animals were subjected to behavioral (Morris water maze) analysis. The investigators were blinded to the study compounds. Samples were given to the mice at 0.25 ml/mouse/every other day.
For histological examination, the animals were anesthetized with an intraperitoneal injection (IP) of sodium pentobarbital (50 mg/kg). The animals were transcardially perfused with 4° C., phosphate-buffered saline (PBS) followed by 4% paraformaldehyde. The brains were removed and placed in 4% paraformaldehyde over night. The brains were processed to paraffin and embedded. Ten serial 30-μm thick sections through the brain were obtained. Sections were subjected to primary antibody overnight at 4° C. (Aβ peptide antibody) in order to detect the amyloid deposits in the brain of the transgenic animals (Guo et al., J. Neurosci., 22:5900-5909 (2002)). Sections were washed in Tris-buffered saline (TBS) and secondary antibody was added and incubated for 1 hour at room temperature. After washing, the sections were incubated as instructed in the Vector ABC Elite kit (Vector Laboratories) and stained with […] (DAB). The reactions were stopped in water and cover-slipped after treatment with xylene. The amyloid area in each section was determined with a computer-assisted image analysis system, consisting of a Power Macintosh computer equipped with a Quick Capture frame grabber card, Hitachi CCD camera mounted on an Olympus microscope and camera stand. NIH Image Analysis Software, v. 1.55 was used. The images were captured and the total area of amyloid was determined over the ten sections. A single operator blinded to treatment status performed all measurements. Summing the amyloid volumes of the sections and dividing by the total number of sections was done to calculate the amyloid volume.
For quantitative analysis, an enzyme-linked immunosorbent assay (ELISA) was used to measure the levels of human total Aβ, Aβtotal and Aβ1-42 in the brains of APP transgenic mice (Biosource International, Camarillo, Calif.). Aβtotal and Aβ1-42 were extracted from mouse brains by guanidine hydrochloride and quantified as described by the manufacturer. […]

B1: TTP-4000: four domain RAGE fusion protein: human RAGE V and C1 domains with interdomain linkers (to residue 251) fused to human IgG1 CH2 and CH3; SEQ ID NO: 34/56 (protein, listed as Homo sapiens)
chain: QNITARIGEPLVLKCKGAPKKPPQRLEWKLNTGRTEAWKVLSPQGGGPWDSVARVLPNGSLFLPAVGIQDEGIFRCQAMNRNGKETKSNYRVRVYQIPGKPEIVDSASELTAGVPNKVGTCVSEGSYPAGTLSWHLDGKPLVPNEKGVSVKEQTRRHPETGLFTLQSELMVTPARGGDPRPTFSCSFSPGLPRHRALRTAPIQPRVWEPVPLEEVQLVVEPEGGAVAPPSVFLFPPKPKDTLMISRTPEVTCVVVDVSHEDPEVKFNWYVDGVEVHNAKTKPREEQYNSTYRVVSVLTVLHQDWLNGKEYKCKVSNKALPAPIEKTISKAKGQPREPQVYTLPPSRDELTKNQVSLTCLVKGFYPSDIAVEWESNGQPENNYKTTPPVLDSDGSFFLYSKLTVDKSRWQQGNVFSCSVMHEALHNHYTQKSLSLSPGK
day of graft loss, Mean [1]: 39.875 days | day of graft loss, each animal ([1]; blood glucose exceeded 250 mg/dl): 38 day (2×) and 40 day and 43 day and 36 day and 45 day and 44 day and 35 day | blocking S100b induction of TNF-α compared with sRAGE [2]: at least as effective | reduction of S100b induction of TNF-α ([2]; S100b 0.1 mg/ml FAC, 24 hours): ~70% | inflammatory cytokines IL-1 and TNF-α ([3]; data not shown): can reduce | Aβ plaques in the brain ([3]; treated for 3 months, vs vehicle and human IgG1, FIG. 14A): fewer Aβ plaques | cognitive dysfunction (Morris water maze) ([3]; treated for 3 months, vs vehicle and human IgG1, FIG. 14B): less cognitive dysfunction
